Measurements taken from the supplement of paper PMC9112550, “Optimization of the antimicrobial peptide Bac7 by deep mutational scanning” (BMC Biology, 2022).

Tested on: Escherichia coli TOP10
Assay: shrunken log2 fold change of peptide-encoding DNA abundance (4.5 h post-induction vs induction); higher = less antimicrobial activity (less host growth inhibition)
Settings: time post-induction: 4.5 h; library: site-saturation at positions 5, 18, 19, 20
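Also: peptides expressed intracellularly from a pBAD plasmid library in pooled LB shake-flask culture, induced with 0.3% L-arabinose, DNA abundance read by NGS, three biological replicates, DESeq2 with apeglm shrinkage.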

Row | Sequence | shrunken log2 fold change
1 | RRIRCRPPRLPRPRPRPGGYPRP | 0.0874
2 | RRIRTRPPRLPRPRPRPSMGPRP | -0.22
3 | RRIRARPPRLPRPRPRPGDEPRP | 0.393
4 | RRIRDRPPRLPRPRPRPHMQPRP | -0.368
5 | RRIRARPPRLPRPRPRPTDDPRP | 0.332
6 | RRIRLRPPRLPRPRPRPIFMPRP | -0.414
7 | RRIRARPPRLPRPRPRPWAEPRP | 0.264
8 | RRIRERPPRLPRPRPRPFWEPRP | -0.56
9 | RRIRFRPPRLPRPRPRPFFKPRP | -0.251
10 | RRIRVRPPRLPRPRPRPGTMPRP | -0.122
11 | RRIRPRPPRLPRPRPRPGYIPRP | -0.553
12 | RRIRYRPPRLPRPRPRPAPTPRP | 0.169
13 | RRIRVRPPRLPRPRPRPYLSPRP | -0.491
14 | RRIRKRPPRLPRPRPRPPIIPRP | -0.146
15 | RRIRQRPPRLPRPRPRPLQMPRP | 0.122
16 | RRIRDRPPRLPRPRPRPDYDPRP | -0.0133
17 | RRIRIRPPRLPRPRPRPMHCPRP | -0.00192
18 | RRIRSRPPRLPRPRPRPDRIPRP | -0.249
19 | RRIRDRPPRLPRPRPRPNSAPRP | -1.36
20 | RRIRERPPRLPRPRPRPQGRPRP | -0.0137
21 | RRIRNRPPRLPRPRPRPHIIPRP | 0.0166
22 | RRIRPRPPRLPRPRPRPMFNPRP | -0.648
23 | RRIRNRPPRLPRPRPRPIKCPRP | -0.0141
24 | RRIRDRPPRLPRPRPRPGAMPRP | 0.408
25 | RRIRVRPPRLPRPRPRPYIPPRP | -1

Row | Sequence | shrunken log2 fold change
26 | RRIRLRPPRLPRPRPRPSLMPRP | 0.126
27 | RRIRKRPPRLPRPRPRPAFSPRP | -0.0331
28 | RRIRNRPPRLPRPRPRPMRPPRP | 0.537
29 | RRIRERPPRLPRPRPRPVGWPRP | 0.888
30 | RRIRYRPPRLPRPRPRPPDIPRP | -0.157
31 | RRIRPRPPRLPRPRPRPIRRPRP | -0.0359
32 | RRIRKRPPRLPRPRPRPNPMPRP | 0.459
33 | RRIRFRPPRLPRPRPRPVAWPRP | 0.119
34 | RRIRCRPPRLPRPRPRPIMVPRP | -0.115
35 | RRIRMRPPRLPRPRPRPELDPRP | 2.77
36 | RRIRWRPPRLPRPRPRPYTGPRP | -0.135
37 | RRIRDRPPRLPRPRPRPGPTPRP | 0.355
38 | RRIRRRPPRLPRPRPRPKLSPRP | 0.262
39 | RRIRYRPPRLPRPRPRPGHGPRP | -0.111
40 | RRIRVRPPRLPRPRPRPPHEPRP | 0.42
41 | RRIRARPPRLPRPRPRPIFAPRP | 0.555
42 | RRIRQRPPRLPRPRPRPNWYPRP | -0.0479
43 | RRIRTRPPRLPRPRPRPDKPPRP | 0.0877
44 | RRIRLRPPRLPRPRPRPGMVPRP | -0.0517
45 | RRIRKRPPRLPRPRPRPELEPRP | 0.0875
46 | RRIRNRPPRLPRPRPRPVHEPRP | -0.00149
47 | RRIRLRPPRLPRPRPRPIDIPRP | 0.00368
48 | RRIRMRPPRLPRPRPRPGNNPRP | -0.0591
49 | RRIRCRPPRLPRPRPRPFMLPRP | -0.697
50 | RRIRHRPPRLPRPRPRPTNHPRP | -0.457
